Assay results taken from the supplement of paper PMC11865577.

test system: G-clamp-N3 (biotin conjugate); assay: pull-down binding Z-score (relative to library population); higher = stronger binding; details: RNA library: Library-1 (pre-miRNA loops + repeats)
In short: (§1)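 To score binding, a beads-only signal was subtracted, barcoded replicate probes were averaged with the highest and lowest dropped, and the value was converted to a Z-score using the library mean and standard deviation. The input was 1 μg of Cy5- or Cy3-end-labelled RNA library, heat-folded in phosphate/NaCl/KCl buffer and mixed for 60 min at 25 °C with streptavidin beads carrying 100 pmol of biotin-conjugated small molecule. Bound RNA was eluted in hot SDS and hybridised to a DNA barcode microarray at 55.5 °C for 20 h.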

Row | Sequence | pull-down binding Z-score
1 | CCUCGAAGCUGCCUUUAGAAAUGAGG [hsa-mir-4496] | -0.107
2 | CCUCUCGGGAACUACAAGUCCCAGGGGG [hsa-mir-2861] | 0.879
3 | CCUCUGUCCUCUGUCCUCUACCUAUAGAGG [hsa-mir-641] | 0.349
4 | CCUGACAGACAGCCUGAUAGACAGG [hsa-mir-4661] | -0.998
5 | CCUGAUGAAUCUGAGGCCAGG [hsa-mir-577] | 1.14
6 | CCUGCAGCCCCCAGGUGGGGGG [hsa-mir-4271] | 0.67
7 | CCUGCAGGUGAGAGCGGGAACACCUGCAU [hsa-mir-7112] | 0.953
8 | CCUGCCACGUCAAAGGAGGCAGA [hsa-mir-3154] | 1.11
9 | CCUGCCCAAAUGGUGGAGCAGAUUCGAGGGGCAGG [hsa-mir-4436b-2_4436b-1] | 2.51
10 | CCUGCCUCAGAACUACUGAACAGAGUCACUGGGUGUGGA [hsa-mir-1289-2] | 0.873
11 | CCUGCCUGCCCUCCAGGUCAUGUUCCAGUGUCCCACAGAUGCAGCACCACGG [hsa-mir-6075] | -0.799
12 | CCUGCUGUGUGAAACAAAAGUAAG [hsa-mir-302c] | -1.08
13 | CCUGGAGAGCUGCUGUCUCCAG [hsa-mir-6746] | 1.35
14 | CCUGUAUGUCUCCCCGCAGCACCGUCAUCGU [hsa-mir-6774] | -1.39
15 | CCUGUCCUAUGACAAACAUGGCAGG [hsa-mir-3927] | -0.521
16 | CCUGUUUGAAUAUUUCACCAGAAACAGG [hsa-mir-4433b] | 1.2
17 | CCUGUUUUACAAAUAAGGAAAUAAACUCAGG [hsa-mir-1321] | -1.01
18 | CCUUAGCACUAGCAGGAGG [hsa-mir-612] | 0.101
19 | CCUUCCAAUACCUGUAAGCAGAAGG [hsa-mir-3158-2] | 0.355
20 | CCUUCGCUUUAUUUGUGACGAAUC [hsa-mir-154] | -0.922
21 | CCUUCUAAUGAGUAUGCUUAACUUGGUAGAAGG [hsa-mir-3914-1] | 0.508

Row | Sequence | pull-down binding Z-score
22 | CCUUCUACCAAGUUAAGCAUACUCAUUAGAAGG [hsa-mir-3914-2] | -0.275
23 | CCUUCUCCUCUUUGCAGUGAUAAAGGAGG [hsa-mir-4460] | -0.412
24 | CCUUCUGCUUACAGGUAUUGGAAGG [hsa-mir-3158-1] | 0.832
25 | CCUUCUGUAUACAUGUAUACAGGAGGAAGG [hsa-mir-4716] | 0.64
26 | CCUUGCCUGUGGCAAGACCACUUCGGUUCAAGG [hsa-mir-4295] | 0.54
27 | CCUUGUGAAUGUCGGGCAAUGG [hsa-mir-4701] | 1.59
28 | CCUUUCCCCUCAGACCAAGG [hsa-mir-3131] | -0.0682
29 | CCUUUGUGAGCAGUGUGACCCAAGGCCUGUGGACAGGG [hsa-mir-555] | 0.911
30 | CGACUCCGUGGCAGAGUUCA [hsa-mir-3666] | -1.1
31 | CGAGAAGCGCCUGCGUCUCCCAUUUUCG [hsa-mir-3944] | -1
32 | CGAGACACAGAAACAGACACCUGCCCUCGA [hsa-mir-151b] | -2.29
33 | CGAGCCGCUUCCUCACGGCUCG [hsa-mir-4665] | 0.651
34 | CGAGGUGG [hsa-mir-4302] | -0.91
35 | CGAGGUGGGCUAGGCUCGGGCCCGUGGCG [hsa-mir-3656] | 2.89
36 | CGAGUCUGAGCCUUUAAAAGCCACUCU [hsa-mir-1287] | -1.4
37 | CGAUAAACCCCUAAAUAGGGACUUUCCCG [hsa-mir-484] | -0.934
38 | CGCCAGCUCGCUGACAGCACGACUCAGGGCG [hsa-mir-658] | 0.902
39 | CGCGCCCGGCCUAACUUUUAAGAAACGUCGGCCCGGGAGCG [hsa-mir-5095] | -0.0298
40 | CGCGCGUCGAGUCAGCCGUGUG [hsa-mir-933] | 1.31
41 | CGCGGAGCAGCGCUGGGUGCAGCGCCUG [hsa-mir-4508] | -0.567
42 | CGCGGGCGGGUCCCAGGCUGGGCCCCUCGGAGGCCGGGUGCUCACUGCCCCGUCCCGG [hsa-mir-6789] | 0.322

test system: TO-3-N3-2 (biotin conjugate); assay: as above; details: RNA library: Library-2
In short: as §1

Row | Sequence | pull-down binding Z-score
43 | CCGCUAGUGGAAGAAGAUGGCGG [hsa-mir-6125] | 0.669
44 | CCGGCCCGUUAGUUGCCCGGGCCCG [hsa-mir-3181] | -0.397
45 | CCGGGCGCUGCUCUGACCCCUCGU [hsa-mir-187] | 0.116
46 | CCGGGGCAGGAGACCCCGCG [hsa-mir-1470] | -0.34
47 | CCGGGUGCCCACAAGACUGUG [hsa-mir-3138] | 0.469
48 | CCGUAUAUAUAUAUAUAUAUAUAUAGAUAUCUCCAUAUAUAUGG [hsa-mir-620] | -0.53
49 | CCGUGCCCUGGCCACUCAUUCGG [hsa-mir-6741] | 0.133
50 | CCGUUUAAAAAGGCAUCUCCAAG [hsa-mir-608] | 0.433
51 | CCUAGAGUCCAUUCUUUACUCUAGG [hsa-mir-4779] | -0.586
52 | CCUAGUGGCUAGCCCUGGGUCUAGCAGCCUAUGGCAGUGUCUGGUAAACACUGGUGGAGUCCUGGG [hsa-mir-6745] | -0.307
53 | CCUCAAUCACUUGCCAGAGAGAUUGG [hsa-mir-1200] | -0.188
54 | CCUCACCUGCUGAGAG [hsa-mir-3670-3_3670-2_3670-1_3670-4] | -0.133
55 | CCUCCCCCAGUGCCAGG [hsa-mir-3196] | -0.331
56 | CCUCCCUAGGGGAUCCCAGGUAGG [hsa-mir-4688] | -0.168
57 | CCUCGAAGCUGCCUUUAGAAAUGAGG [hsa-mir-4496] | -0.192
58 | CCUCUCGGGAACUACAAGUCCCAGGGGG [hsa-mir-2861] | -0.409
59 | CCUCUGUCCUCUGUCCUCUACCUAUAGAGG [hsa-mir-641] | -0.229
60 | CCUGACAGACAGCCUGAUAGACAGG [hsa-mir-4661] | 0.168
61 | CCUGAUGAAUCUGAGGCCAGG [hsa-mir-577] | 0.118
62 | CCUGCAGCCCCCAGGUGGGGGG [hsa-mir-4271] | -0.105
63 | CCUGCAGGUGAGAGCGGGAACACCUGCAU [hsa-mir-7112] | 0.104
64 | CCUGCCACGUCAAAGGAGGCAGA [hsa-mir-3154] | -0.38
65 | CCUGCCCAAAUGGUGGAGCAGAUUCGAGGGGCAGG [hsa-mir-4436b-2_4436b-1] | 0.0731
66 | CCUGCCUCAGAACUACUGAACAGAGUCACUGGGUGUGGA [hsa-mir-1289-2] | -0.00545
67 | CCUGCCUGCCCUCCAGGUCAUGUUCCAGUGUCCCACAGAUGCAGCACCACGG [hsa-mir-6075] | 0.186
68 | CCUGCUGUGUGAAACAAAAGUAAG [hsa-mir-302c] | 0.0469
69 | CCUGGAGAGCUGCUGUCUCCAG [hsa-mir-6746] | -0.596
70 | CCUGUAUGUCUCCCCGCAGCACCGUCAUCGU [hsa-mir-6774] | 0.182
